The data set addresses HFV integrase (HFV IN) (Human foamy virus, UniProt P14350 752-1143). Nature of the data set: EMSA; 5 mM Mg2+. The note with it: protein: recombinant; chain copies: 4; blunt. For orientation: A gel shift assay detects complexes by their altered migration in electrophoresis.

In article PMC3347520, “Relative Comparison of Catalytic Characteristics of Human Foamy Virus and HIV-1 Integrases” one finds Kd data, which are given here for one molecule.

In general, Kd refers to the equilibrium constant for the complex coming apart.

B1: U5-HFV duplex (U5B-HFV/U5A-HFV) (dsDNA)
DNA 1: ATACAAAATTCCATGACAAT
DNA 2: ATTGTCATGGAATTTTGTAT
As for B1, the Kd amounted to 17.3 nM.
